Experimental data: patent publication US20240084005A1 (ALLAKOS, published 2024)

Assays:
Siglec-6 ECD Fc protein = target: T1, Siglec-6 ECD Fc protein (human, UniProt O43699 27-347); assay: BLI (Octet Red 384), bivalent IgG on immobilized Siglec-6 ECD Fc
T1 construct: also called Siglec-6 full ECD fused to a human Fc; not shown: human Fc
Experimental: Bivalent binding affinities of IgG for Siglec-6 mAbs were measured by biolayer interferometry using a FortéBio Octet Red 384 instrument using immobilized Siglec-6 ECD Fc protein.

[1] = target: T2, Siglec-6 domains 1 and 2 fused to a human Fc (human, UniProt O43699 27-237); assay: ELISA on Siglec-6 domain-human Fc fusions (Domain Mapping = 3)
T2 construct: also called domains 1 and 2 fusion protein; not shown: human Fc
T2 sequence (O43699 27-237 limits assumed): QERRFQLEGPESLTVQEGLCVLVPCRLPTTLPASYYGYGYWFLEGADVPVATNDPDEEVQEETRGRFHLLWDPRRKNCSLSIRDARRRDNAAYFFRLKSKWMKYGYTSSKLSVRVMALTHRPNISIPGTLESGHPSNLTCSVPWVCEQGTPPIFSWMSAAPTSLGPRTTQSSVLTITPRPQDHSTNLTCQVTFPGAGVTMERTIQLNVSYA
Experimental: (§1) Domain mapping was assessed by ELISA using recombinantly expressed Siglec-6 extracellular domains fused to a human Fc containing the full ECD, domains 1 and 2, or domain 1. Siglec-6 mAbs were tested for binding to each of these domain fusion proteins and assigned domains based on their specific binding properties. Siglec-6 mAbs that bound to all three fusion proteins were assigned domain 1 binders, mAbs that bound to full ECD and domains 1 and 2 were assigned domain 2 binders, and mAbs that bound to only the full ECD protein were assigned domain 3 binders.

[2] = target: T3, Siglec-6 domain 1 fused to a human Fc (human, UniProt O43699 27-147); assay: as above
T3 construct: also called domain 1 fusion protein; not shown: human Fc
T3 sequence (O43699 27-147 limits assumed): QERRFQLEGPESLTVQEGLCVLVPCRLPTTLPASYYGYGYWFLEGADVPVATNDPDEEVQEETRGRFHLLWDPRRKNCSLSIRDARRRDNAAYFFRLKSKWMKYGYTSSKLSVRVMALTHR
Experimental: as §1

[3] = target: T3, Siglec-6 domain 1 fused to a human Fc; assay: ELISA on Siglec-6 domain-human Fc fusions (Domain Mapping = 2)
Experimental: as §1

[4] = target: Siglec-6 (antigen of Example 8) (human, UniProt O43699 27-347, limits assumed); assay: BLI, monovalent Fab
Siglec-6 (antigen of Example 8), sequence (O43699 27-347 limits assumed): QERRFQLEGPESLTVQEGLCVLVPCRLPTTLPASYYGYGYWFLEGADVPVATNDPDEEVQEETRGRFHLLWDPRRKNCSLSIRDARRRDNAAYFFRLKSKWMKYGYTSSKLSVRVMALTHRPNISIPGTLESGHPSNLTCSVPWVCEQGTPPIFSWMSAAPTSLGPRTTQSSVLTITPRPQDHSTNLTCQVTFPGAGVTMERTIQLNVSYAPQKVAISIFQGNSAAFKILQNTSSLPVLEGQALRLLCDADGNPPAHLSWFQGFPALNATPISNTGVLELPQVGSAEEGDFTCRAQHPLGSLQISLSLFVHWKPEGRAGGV

T1 sequence (O43699 27-347): as the sequence (O43699 27-347 limits assumed) above

Kd (Siglec-6 ECD Fc protein)	binding result [1]	binding result [2]	Molecule	other results
0.009 nM	–	–	R&D MAB2859 (antibody)	–
0.001 nM	–	–	AK01 (antibody, V domains shown, also called anti-Siglec-6 mAb AK01) VH: QVQLKQSGPGLVQPSQSLSITCTVSGFSLTSYSVHWVRQSPGKGLEWLGVIWSGGSTDYNAVFISRLSISRDNSKSQVFFKMNSLQADDSAIYYCASYSYYTMDYWGQGTSVTVSS VL: DVVMTQTPLSLPVSLGDQASISCRSSQSLVLDNGNTYLHWYLQKPGQSPKLLIYKVSNRFSGVPDRFTGSGSGTDFTLKINRVEAEDLGVYFCSQSTHVPFTFGSGTKLEIK	–
0.055 nM	–	–	AK05 (antibody, V domains shown, also called anti-Siglec-6 mAb AK05) VH: QVQLQQPGTELVKPGASVQLSCKASGYIFTSYWMYWVKQRPGQGLEWIGNVNPYSGDTNYNEKFKTKATLTVDKASSTAFIQLSGLTSEDSAVYFCARGDGLYYYAMDYWGQGTSVTVSS VL: DIKMTQSPSSMYASLGERVTITCKASQDINSYLTWFQQKPGKSPKTLIYRASRLVDGVPSRFSGSGSGQDYSLTISSLEYEDMGIYYCLQYDEFPLTFGAGAKLELI	–
0.072 nM	no binding	no binding	AK14 (antibody, V domains shown, also called anti-Siglec-6 mAb AK14) VH: QIQLVQSGPELKKPGETVKISCKASGYTFTTYGMSWVKQAPGKGLKWMGWINTYSGVPTYADDFKGRFAFSLETSATTAYLQINNLKNEDTATYFCARLAYFGYYFDFWGQGTTLTVSS VL: DIVMTQSQKFMSTTVGDRVSFTCKASQNVGSAVAWYQQKPGQSPKLLIYSASNRYTGVPDRFTGSGSGTDFTLTISNMQSEDLADYFCQQYSSYPYTFGGGTKLEIK	–
0.11 nM	no binding	no binding	AK09 (antibody, V domains shown, also called anti-Siglec-6 mAb AK09) VH: QIQLVQSGPELKKPGETVKISCKASGYTLTTYGMSWVKQAPGKGLKWMGWINTYSGVPTYADEFKGRFAFSLETSASTAYLQINNLKNEDTATYFCARLGYYGYYFDYWGQGTTLTVSS VL: DVVLTQSPATLSVTPGDSVSLSCRASQSIRNNLHWYQQKSHESPRLLIKYIFQSISGIPSRFSGSGSGTEFTLSINSVETEDFGMYFCQQSDSWPHVTFGAGTKLELI	–
0.063 nM	no binding	no binding	AK13 (antibody, V domains shown, also called anti-Siglec-6 mAb AK13) VH: QIQLVQSGPELKKPGETVKISCKASGYTFTTYGMSWVKQAPGKGLKWMGWINTYSGVPTYADDFKGRFAFSLETSATTAYLQINNLKNEDTATYFCARLAYFGYYFDFWGQGTTLTVSS VL: DIVMTQSQKFMSTTVGDRVSFTCKASQNVGSAVTWYQQKPGQSPKLLIYSASNRYTGVPDRFTGSGSGTDFTLTISNMQSEDLADYFCQQYSSYPYTFGGGTKLEIK	–
1.04 nM	no binding	no binding	AK15 (antibody, V domains shown, also called anti-Siglec-6 mAb AK15) VH: QVQLKESGPGLVAPSQSLSITCTVSGFSLTSYGVSWVRQPPGKGLEWLGIIWGDGSTNYHSALISRLSISKDKSKSQVFLKLNSLQADDTATYYCAKGLSDWYFDVWGTGTTVTVSS VL: QIVLSQSPAILSASPGEKVTMTCRASSSVSYMHWYQQKPGSSPKPWIYATSNLASGVPARFSGSGSGTSYSLTISRVEAEDAATYYCQQWSSNPYTFGGGTKLEIK	–
0.087 nM	no binding	no binding	AK12 (antibody, V domains shown, also called anti-Siglec-6 mAb AK12) VH: QVQLKQSGPGLVQPSQSLSITCTVSGFSLTSYGVHWVRQSPGKGLEWLGVIWGGGSTDYNAGFISRLSISKDNSKSQVFFKMNSLQADDTAIYYCARALSDWYFDVWGTGTTVTVSS VL: QIVLSQSPAILSASPGEKVTMTCRASSSVSYMHWYQQKPGSSPKPWIYATSNLASGVPARFSGSGSGTSYSLTISRVEAEDAATYYCQQWSSNPLTFGAGTKLELK	–
0.001 nM	–	–	AK03 (antibody, V domains shown, also called anti-Siglec-6 mAb AK03) VH: EVQLQQSGTVLARPGASVKMSCKTSGYTFTSYWMHWVKQRPGQGLEWIGTIYPGNSDSTYNQKFKGKAKLTAVTSASTAYMEVSSLTNEDSAVYYCSREGTVVANYYGLDYWGQGTSVTVSS VL: QIVLSQSPAILSASPGEKVTMTCRASSSVSYIHWYQQKPGSSPKPWIYATSNLASGVPARFSGSGSGTSYSLTISRVEAEDAATYYCQQWSSKPPTFGAGTKLELK	–
0.007 nM	–	–	AK02 (antibody, V domains shown, also called anti-Siglec-6 mAb AK02) VH: QVQLQQPGAELVKPGASVKLSCKASGYTFTNYYIHWVKQRPGQGLEWIGMIHPISGSTNYNEKLKIKATLTVDKSSSTAYMQLSSLTSEDSAVYYCARRYYGSSYWYFDVWGTGTTVTVSS VL: QIVLSQSPAILSASPGEKVTMTCRASSSVSYMNWYQQKPGSSPKPWIYATSNLASGVPARFSGSGSGTPYSLTISRVEAEDAATYYCQQWSSHPPTFGSGTKLEIK	–
0.261 nM	no binding	no binding	AK08 (antibody, V domains shown, also called anti-Siglec-6 mAb AK08) VH: QVQLKESGPGLVAPSQSLSITCTVSGFSLTSYGVNWIRQPPGKGLEWLGVIWGDGSTNYHSALISRLSISKDNSKSQVFLKLNSLQTDDTATYYCAKALSDWYFDVWGTGTTVTVSS VL: QIVLSQSPAILSASPGEKVTMTCRASSSVSYMHWYQQKPGSSPKPWIYATSNLASGVPARFSGSGSGTSYSLTISRVEAEDAATYYCQQWSSNPYTFGGGTKLEIK	–
0.002 nM	–	–	AK11 (antibody, V domains shown, also called anti-Siglec-6 mAb AK11) VH: EVMLVESGGGLVKPGGSLKLSCAASGFSFSTYVMSWVRQTPEKRLEWVASISGGGSNTYYPDSVKGRFTISRDNAKNTLYLQMSSLRSEDTALYYCARREVVVYWYFDVWGTGTTVTVSS VL: DIQMTQSPASLSVSVGETVTITCRASENIYSNLAWYQQKQGKSPQLLVFSAKNLADGVPSRFGGSGSGTQYSLKINSLQSEDFGTYYCQHFWGTPLTFGAGTKLELK	binding result [3]: no binding
0.001 nM	–	–	AK04 (antibody, V domains shown, also called anti-Siglec-6 mAb AK04; AK04 IgG1) VH: QVQLKESGPGLVAPSQSLSITCTVSGFSLTSYGVSWVRKPPGKGLEWLGVIWHDGSTSYHSTLISRLNISRDNSKSQVFLKLNSLQTDDTATYYCASDGYSGTFAYWGQGTLVTVSA VL: QIVVTQSPAIMSASLGERVTMTCTASSSVSSSYLHWYQQKPGSSPKLWIYSTSILASGVPARFSGSGSGTSYSLTVSSMEAEDAATYYCHQYHRSPYTFGGGSKLEIR	–
–	–	–	AK04 Reference Fab (Fab, V domains shown) VH: QVQLKESGPGLVAPSQSLSITCTVSGFSLTSYGVSWVRKPPGKGLEWLGVIWHDGSTSYHSTLISRLNISRDNSKSQVFLKLNSLQTDDTATYYCASDGYSGTFAYWGQGTLVTVSA VL: QIVVTQSPAIMSASLGERVTMTCTASSSVSSSYLHWYQQKPGSSPKLWIYSTSILASGVPARFSGSGSGTSYSLTVSSMEAEDAATYYCHQYHRSPYTFGGGSKLEIR	Kd [4]: 0.075 nM; koff [4]: 6.5e-05 s⁻¹; kon [4]: 860000 M⁻¹ s⁻¹
–	–	–	AK19 Fab (Fab, V domains shown) VH: QVQLQESGPGLVKPSETLSLTCTVSGFSLTSYGVSWIRQPPGKGLEWIGVIWHDGSTSYHSTLISRVTISRDTSKNQVSLKLSSVTAADTAVYYCASDGYSGTFAYWGQGTLVTVSS VL: QIVVTQSPATLSLSPGERATLSCTASSSVSSSYLHWYQQKPGQAPRLLIYSTSILASGIPARFSGSGSGTDFTLTISSLQPEDFAVYYCHQYHRSPYTFGQGTKLEIK	Kd [4]: 0.032 nM; koff [4]: 2.6e-05 s⁻¹; kon [4]: 830000 M⁻¹ s⁻¹
–	–	–	AK20 Fab (Fab, V domains shown) VH: QVQLQESGPGLVKPSETLSLTCTVSGFSLTSYGVSWIRQPPGKGLEWIGVIWHDGSTSYHPSLKSRVTISRDTSKNQVSLKLSSVTAADTAVYYCASDGYSGTFAYWGQGTLVTVSS VL: QIVVTQSPATLSLSPGERATLSCTASSSVSSSYLHWYQQKPGQAPRLLIYSTSILASGIPARFSGSGSGTDFTLTISSLQPEDFAVYYCHQYHRSPYTFGQGTKLEIK	Kd [4]: 0.12 nM; koff [4]: 9.1e-05 s⁻¹; kon [4]: 750000 M⁻¹ s⁻¹
–	–	–	AK21 Fab (Fab, V domains shown) VH: QVQLQESGPGLVKPSETLSLTCTVSGFSLSSYGVSWIRQPPGKGLEWIGVIWHDGSTNYNPSLKSRVTISRDTSKNQVSLKLSSVTAADTAVYYCASDGYSGTFAYWGQGTLVTVSS VL: QIVVTQSPATLSLSPGERATLSCTASSSVSSSYLHWYQQKPGQAPRLLIYSTSILASGIPARFSGSGSGTDFTLTISSLQPEDFAVYYCHQYHRSPYTFGQGTKLEIK	Kd [4]: 0.04 nM; koff [4]: 3.7e-05 s⁻¹; kon [4]: 920000 M⁻¹ s⁻¹
0.024 nM	–	–	AK06 (antibody, V domains shown, also called anti-Siglec-6 mAb AK06) VH: EVPLVESGGGLVKPGGSLKLSCAASGFTFSDYGIHWVRQAPEKGLEWVAYITSVSSTIYYADTVKGRFTISRDNAKNTLFLQMTSLRSEDTAMYYCAILDWYFDVWGTGTTVTVSS VL: QIVLTQSPAIMSASPGEKVTMTCSANSSVSFMHWFQQKSGTSPKRWIYDTSKLASGVPARFSASGSGTSYSLTISSMEAEDAATYYCQQWSSNPLTFGAGTKVELK	–
0.069 nM	–	–	AK07 (antibody, V domains shown, also called anti-Siglec-6 mAb AK07) VH: EVQLQQSGPELVKPGASVKMSCKASGYTFTDYKMHWVKQSHGKSLEWIGNINPNNGGTSYNQKFKGKATLTVNKSSSTAYMELRSLTSEDSAVYYCARRYYGSSSSYFDYWGQGTTLTVSS VL: QIVLTQSPAIMSASPGEKVTMTCSVSSSVSYMHWYQQKSGTSPKRWIYDTSKLASGVPARFSGSGSGTSYSLTISSMEAEDAATYYCQQWSSNPPTFGAGTKLELK	–
